The results in this text go back to patent US20240100176A1, “HUMAN INTERLEUKIN-4 RECEPTOR ALPHA ANTIBODY GLUCOCORTICOID CONJUGATES” (Eli Lilly and Company, priority 2022, published 2024).

In general, Kd refers to a measure of binding affinity in units of concentration. Read a low Kd as higher affinity.

Experiment [1] concerns the target human FcγRI (CD64) extracellular domain (human) (UniProt P12314). The experiment is described as follows: SPR (Biacore), antibody captured on protein A, FcγR ECD as analyte, 25 °C. (In general: Surface plasmon resonance follows binding to a sensor surface in real time, without labels.)
Experiment [2] has the same target. The experiment is described as above. The source holds these as a separate data set.
Experiment [3] has as its target human FcγRIIA_131H (CD32a) extracellular domain (human) (UniProt P12318). Put plainly: SPR (Biacore), antibody captured on protein A, FcγR ECD as analyte, steady state, 25 °C.
Experiment [4] addresses human FcγRIIA_131R (CD32a) extracellular domain (human) (UniProt P12318). Described as above.
In experiment [5] the target is human FcγRIIIA_158F (CD16a) extracellular domain (human) (UniProt P08637). The description is as above.
Sequence of human FcγRIIIA_158F (CD16a) extracellular domain (human) (P08637 17-208): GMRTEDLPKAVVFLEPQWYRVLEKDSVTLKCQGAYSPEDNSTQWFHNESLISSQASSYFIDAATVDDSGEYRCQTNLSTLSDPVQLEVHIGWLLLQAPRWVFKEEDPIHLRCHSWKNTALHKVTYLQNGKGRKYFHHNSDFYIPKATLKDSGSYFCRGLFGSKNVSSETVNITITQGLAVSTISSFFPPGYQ
Experiment [6] deals with human FcγRIIb (CD32b) extracellular domain (human) (UniProt P31994). Described as above.
Sequence of human FcγRIIb (CD32b) extracellular domain (human) (P31994 43-217): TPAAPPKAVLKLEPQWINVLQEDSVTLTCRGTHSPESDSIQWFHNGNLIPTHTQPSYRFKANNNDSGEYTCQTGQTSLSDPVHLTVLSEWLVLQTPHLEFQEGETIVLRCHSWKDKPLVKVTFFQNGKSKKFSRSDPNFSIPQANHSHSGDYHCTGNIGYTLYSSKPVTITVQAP
Experiment [7] deals with human FcγRIIA_131H (CD32a) extracellular domain (human) (UniProt P12318). The experiment is described as above. The source holds these as a separate data set.
Sequence of human FcγRIIA_131H (CD32a) extracellular domain (human) (P12318 34-217): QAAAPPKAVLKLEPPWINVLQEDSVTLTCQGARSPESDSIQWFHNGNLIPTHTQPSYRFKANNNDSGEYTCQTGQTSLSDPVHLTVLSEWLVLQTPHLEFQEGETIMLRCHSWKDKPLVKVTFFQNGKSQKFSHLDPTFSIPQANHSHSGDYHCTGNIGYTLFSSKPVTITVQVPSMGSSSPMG
For experiment [8], the target named is human FcγRIIA_131R (CD32a) extracellular domain (human) (UniProt P12318). The experiment is described as above. This is another data set of the same source.
Sequence of human FcγRIIA_131R (CD32a) extracellular domain (human) (P12318 34-217 H167R): as the sequence (P12318 34-217) above, with H134R counted along it
The target of experiment [9] is human FcγRIIIA_158F (CD16a) extracellular domain (human) (UniProt P08637). Described as above. This is another data set of the same source.
Experiment [10] has as its target human FcγRIIb (CD32b) extracellular domain (human) (UniProt P31994). The description is as above. The source holds these as a separate data set.
For experiment [11], the target named is human FcγRIIIA_158V (CD16a) extracellular domain (human) (UniProt P08637). The description is as above.
Sequence of human FcγRIIIA_158V (CD16a) extracellular domain (human) (P08637 17-208 F176V): as the sequence (P08637 17-208) above, with F160V counted along it

Read-outs that look alike come from different tables or passages of the source.

Sequence of human FcγRI (CD64) extracellular domain (human) (P12314 16-292): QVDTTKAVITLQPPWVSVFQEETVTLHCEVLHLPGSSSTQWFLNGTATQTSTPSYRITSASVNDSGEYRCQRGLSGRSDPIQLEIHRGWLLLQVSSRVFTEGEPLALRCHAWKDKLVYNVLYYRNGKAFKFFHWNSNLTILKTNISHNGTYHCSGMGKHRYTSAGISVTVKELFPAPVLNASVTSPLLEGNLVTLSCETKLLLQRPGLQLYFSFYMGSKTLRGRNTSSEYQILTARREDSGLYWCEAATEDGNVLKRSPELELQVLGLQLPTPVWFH

Consider Hu IgG1 control (antibody), for which the Kd came to 0.0559 nM in experiment [1]; 0.0521 nM in experiment [2]; 690 nM in experiment [3]; 760 nM in experiment [4]; 910 nM in experiment [5]; 3750 nM in experiment [6]. Moreover, the dissociation constant (Kd) was found to be 680 nM in experiment [7], 740 nM in [8], 1290 nM in experiment [9] and 3110 nM in [10].
Regarding Hu IgG4 SP control (antibody), the Kd in experiment [2] turned out to be 0.419 nM; in experiment [7], 5310 nM; in [8], 2310 nM; in [11], 7350 nM; in experiment [10], 2780 nM.
